Experimental data published in patent publication US20150353909.
Numbering of substitutions follows the chain as printed. Names may count otherwise.

What was measured:
[1] = target: K48-tetraubiquitin chains, P0CG48
[2] = target: K63-tetraubiquitin chains, P0CG48
HA3-RUB-GST, Q9SHE7 = target: T1, HA3-RUB-GST, Q9SHE7
T1 chain: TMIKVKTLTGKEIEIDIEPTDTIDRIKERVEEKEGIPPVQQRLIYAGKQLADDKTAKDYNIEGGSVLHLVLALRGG

[3] = target: HA3-UBQ-GST [GST: P08515]
[4] = target: purified recombinant linear UB dimers
[5] = target: purified recombinant linear UB tetramers
[6] = target: purified recombinant linear UB trimers

Sequence of K63-tetraubiquitin chains, P0CG48 (P0CG48 whole entry, looked up): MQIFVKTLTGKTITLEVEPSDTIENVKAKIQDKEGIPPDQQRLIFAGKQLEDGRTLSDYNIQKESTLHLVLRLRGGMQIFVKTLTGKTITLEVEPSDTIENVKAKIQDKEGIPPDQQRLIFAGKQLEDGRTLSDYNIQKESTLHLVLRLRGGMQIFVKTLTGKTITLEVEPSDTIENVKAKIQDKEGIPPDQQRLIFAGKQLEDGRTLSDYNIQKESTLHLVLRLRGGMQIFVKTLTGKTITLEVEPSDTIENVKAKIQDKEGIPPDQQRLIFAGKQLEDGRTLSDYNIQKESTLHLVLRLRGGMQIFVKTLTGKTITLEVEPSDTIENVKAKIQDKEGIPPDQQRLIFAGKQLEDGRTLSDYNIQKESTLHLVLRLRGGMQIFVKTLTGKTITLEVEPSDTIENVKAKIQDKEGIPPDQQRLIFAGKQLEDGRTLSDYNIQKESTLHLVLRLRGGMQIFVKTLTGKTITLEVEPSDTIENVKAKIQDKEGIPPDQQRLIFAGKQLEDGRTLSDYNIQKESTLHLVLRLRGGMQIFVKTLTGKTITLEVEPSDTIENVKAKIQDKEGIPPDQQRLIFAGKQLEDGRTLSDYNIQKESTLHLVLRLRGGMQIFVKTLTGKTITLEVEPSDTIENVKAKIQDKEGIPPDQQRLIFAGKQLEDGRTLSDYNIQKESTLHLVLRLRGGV
Sequence of K48-tetraubiquitin chains, P0CG48 (P0CG48 whole entry, looked up): as above

B1: OTU10-NΔ1-125 (protein)
chain: EWIGNDNDQDGRSDDSVNVFSCSSPSDTDEYVYSWESDQCDADGEFGRRLNQMVPIPYIPKINGEIPPEEEAVSDHERLRNRLEMFDFTEVKVPGDGNCQFRALADQLYKTADRHKHVRRQIVKQLKSRPDSYQGYVPMDFSDYLRKMSRSGEWGDHVTLQAAADAYRVKIVVLTSFKDTCYIEILPTSQESKGVIFLSFWAEVHYNAIYLNRDTSETELQRKRKWWRFGN
cleavage [1]: comparable to that catalyzed by the corresponding wild-type proteins | cleavage [2]: comparable to that catalyzed by the corresponding wild-type proteins

B2: OTU4c-NΔ (protein)
chain: SGLSRRHYTGFRVSVSNRPSSWHDKGLFGFAYTGVIVSLLVCYSSTSQSAYADSSRDKDANNVHHHSSDGKFHNGKRVYTDYSIIGIPGDGRCLFRSVAHGFCLRSGKLAPGEKMQRELADELRTRVADEFIQRRQETEWFVEGDFDTYVRQIRDPHVWGGEPELFMASHVLQMPITVYMKDDKAGGLISIAEYGQEYGKDDPIRVLYHGFGHYDALLLHESKASIPKSKL
catalytic activities (HA3-RUB-GST, Q9SHE7): did not modify | catalytic activities [3]: did not modify | catalytic activities [1]: did not modify | catalytic activities [2]: did not modify | catalytic activities [4]: did not modify | catalytic activities [5]: did not modify | catalytic activities [6]: did not modify

B3: His-tagged OTU3 (protein)
chain: MELKSSSNNNILEQLRNGFARFELVSSPTASVSDSISSTSLPASFISTTKGNSYVFFARINSSMNRSPAAKKVEKYAVDRVKGDGRCLFRALVKGMAFNKGITLNPQRERDDADELRMAVKEVICNDPKEREKYKEALVAITVDESLKRFCQRIGRHDFWGGESELLVLSKLCKQPIIVYIPEHEHGRGGGYGPGFIPIQEYGSEFRGGWGKGKTNKNVVRLLYSGRNHYDLLR
in vitro deubiquitylation activity (HA3-RUB-GST, Q9SHE7): + | in vitro deubiquitylation activity (HA3-SUMO-GST, P55852): - | in vitro deubiquitylation activity [3]: ++ | in vitro deubiquitylation activity [1]: ++ | in vitro deubiquitylation activity [2]: +++ | in vitro deubiquitylation activity [4]: - | in vitro deubiquitylation activity [5]: + | in vitro deubiquitylation activity [6]: +

B4: OTU7a-C48S (protein)
chain: MAKTKQQKSKPKKQPHQKQGKDCDLSQFRAQLDALGLKIIQVTADGNSFFRAIADQLEGNEDEHNKYRNMIVLYIVKNREMFEPFIEDDVPFEDYCKTMDDDGTWAGNMELQAASLVTRSNICIHRNMSPRWYIRNFEDTRTRMIHLSYHDGEHYNSVRSKEDACGGPARPVVIEADAKVSAASKQAKATESKSKNKADKCHVNAGAIKVVMSGSCCDNTEKAEQVLLQVNGDVDAAIEFLIADQGMESLTENDTETASASDTINPKHASDSPMENTEQAREELIEEESASGNNSETVQAKCTTQTDDKKIPRNKTCPCGSKKKYKSCCGTATGRSSVKLLVSQTMESKKGRKNLRRGTSNEVEANAPDVGALCI
cleavage activity [1]: completely abolished | cleavage activity [2]: completely abolished

B5: OTU10-NΔ1-173 (protein)
chain: RLNQMVPIPYIPKINGEIPPEEEAVSDHERLRNRLEMFDFTEVKVPGDGNCQFRALADQLYKTADRHKHVRRQIVKQLKSRPDSYQGYVPMDFSDYLRKMSRSGEWGDHVTLQAAADAYRVKIVVLTSFKDTCYIEILPTSQESKGVIFLSFWAEVHYNAIYLNRDTSETELQRKRKWWRFGN
cleavage [1]: comparable to that catalyzed by the corresponding wild-type proteins | cleavage [2]: comparable to that catalyzed by the corresponding wild-type proteins

B6: OTU9-NΔ 1-100 (protein)
chain: GQENQGEAIDITQESDILHNHNGNMEDKNVARIRFEGGQSSPSRDDDSVCSVEIEEESWSEVGKRLNQMIPIAHVPKINGELPSEDEQISDHERLFQRLQLYGLVENKIEGDGNCQFRSLSDQLYRSPEHHNFVREQVVNQLAYNREIYEGYVPMAYNDYLKAMKRNGEWGDHVTLQAAADLFGVRMFVITSFKDTCYIEILPHFQKSNRLICLSFWAEVHYNSIYPEGELPIPEGKKKKKYWVF
cleavage [1]: comparable to that catalyzed by the corresponding wild-type proteins | cleavage [2]: comparable to that catalyzed by the corresponding wild-type proteins

B7: OTU1-C92S (protein)
chain: MQNQIDMVKDEAEVAASISAIKGEEWGNCSSVEDQPSFQEEEAAKVPYVGDKEPLSSLAAEYQSGSPILLEKIKILDSQYIGIRRTRGDGNSFFRSFMFSYLEHILESQDRAEVDRIKVNVEKCRKTLQNLGYTDFTFEDFFALFLEQLDDILQGTEESISYDELVNRSRDQSVSDYIVMFFRFVTAGDIRTRADFFEPFITGLSNATVDQFCKSSVEPMGEESDHIHITALSDALGVAIRVVYLDRSSCDSGGVTVNHHDFVPVGITNEKDEEASAPFITLLYRPGHYDILYPKPSCKVSDNVGK
cleavage activity [1]: completely abolished | cleavage activity [2]: completely abolished | linear UB polymer cleavage activity [4]: generally abolished | linear UB polymer cleavage activity [5]: generally abolished | linear UB polymer cleavage activity [6]: generally abolished

B8: OTU1-H288R (protein)
chain: B7 chain with S92C, H288R
cleavage activity [1]: completely abolished | cleavage activity [2]: completely abolished | linear UB polymer cleavage activity [4]: generally abolished | linear UB polymer cleavage activity [5]: generally abolished | linear UB polymer cleavage activity [6]: generally abolished

B9: OTU1-D89E (protein)
chain: B7 chain with D89E, S92C
cleavage activity [1]: completely abolished | cleavage activity [2]: completely abolished | linear UB polymer cleavage activity [4]: to a similar extent as the wild-type protein | linear UB polymer cleavage activity [5]: to a similar extent as the wild-type protein | linear UB polymer cleavage activity [6]: to a similar extent as the wild-type protein

B10: GST-OTU4c-C136S (protein)
chain: MMICYSPITTCSRNAISIKRHLGSRLYGVVAHGSSKFSCYSLLSGLSRRHYTGFRVSVSNRPSSWHDKGLFGFAYTGVIVSLLVCYSSTSQSAYADSSRDKDANNVHHHSSDGKFHNGKRVYTDYSIIGIPGDGRSLFRSVAHGFCLRSGKLAPGEKMQRELADELRTRVADEFIQRRQETEWFVEGDFDTYVRQIRDPHVWGGEPELFMASHVLQMPITVYMKDDKAGGLISIAEYGQEYGKDDPIRVLYHGFGHYDALLLHESKASIPKSKL
fusion protein cleavage activity (HA3-RUB-GST, Q9SHE7): generally abolished | fusion protein cleavage activity [3]: generally abolished | cleavage activity [1]: completely abolished | cleavage activity [2]: completely abolished | linear UB polymer cleavage activity [4]: generally abolished | linear UB polymer cleavage activity [5]: generally abolished | linear UB polymer cleavage activity [6]: generally abolished

B11: GST-OTU4c (protein)
chain: B10 chain with S136C
in vitro deubiquitylation activity (HA3-RUB-GST, Q9SHE7): + | in vitro deubiquitylation activity (HA3-SUMO-GST, P55852): - | in vitro deubiquitylation activity [3]: ++ | in vitro deubiquitylation activity [1]: +++ | in vitro deubiquitylation activity [2]: +++ | in vitro deubiquitylation activity [4]: - | in vitro deubiquitylation activity [5]: ++ | in vitro deubiquitylation activity [6]: ++

B12: OTU9-NΔ1-172 (protein)
chain: AHVPKINGELPSEDEQISDHERLFQRLQLYGLVENKIEGDGNCQFRSLSDQLYRSPEHHNFVREQVVNQLAYNREIYEGYVPMAYNDYLKAMKRNGEWGDHVTLQAAADLFGVRMFVITSFKDTCYIEILPHFQKSNRLICLSFWAEVHYNSIYPEGELPIPEGKKKKKYWVF
cleavage [1]: comparable to that catalyzed by the corresponding wild-type proteins | cleavage [2]: comparable to that catalyzed by the corresponding wild-type proteins

B13: His-tagged OTU2 (protein)
chain: MEGIIVRRVIPSDNSCLFNAIGYVMDKDKNKAPELRQVIAAAVASNKEKYNEAFLGKLNEEYCAWILNPDKWGGAIELSILADYYGREIAAYDIQTSRCDLYGQTRNYDERVMLIYDGLHYDALALSPFEGAEEDFDMTIYPVGKDRSIGSIEGLALNLVKDQQRKRSYTDTANFTLRCGVCQIGVIGQKEAVEHAQATGHVNFQEYK
in vitro deubiquitylation activity (HA3-RUB-GST, Q9SHE7): - | in vitro deubiquitylation activity (HA3-SUMO-GST, P55852): - | in vitro deubiquitylation activity [3]: - | in vitro deubiquitylation activity [1]: + | in vitro deubiquitylation activity [2]: + | in vitro deubiquitylation activity [4]: - | in vitro deubiquitylation activity [5]: - | in vitro deubiquitylation activity [6]: -
